Experimental data reported in article PMC5405149.

biological target: T1, r-YycF (His-GB1-YycF) (Staphylococcus epidermidis (1457?)) (UniProt Q8CQK0); test: EMSA; details: EMSA: 20 nM DNA, 10 mM Tris pH 8.0, 25 mM KCl, 1 mM EDTA, 2.5 mM MgCl2, 5% glycerol, 37 C 30 min; footprinting: 200 ng probe, binding at 30 C 30 min, DNase I …
T1 sequence: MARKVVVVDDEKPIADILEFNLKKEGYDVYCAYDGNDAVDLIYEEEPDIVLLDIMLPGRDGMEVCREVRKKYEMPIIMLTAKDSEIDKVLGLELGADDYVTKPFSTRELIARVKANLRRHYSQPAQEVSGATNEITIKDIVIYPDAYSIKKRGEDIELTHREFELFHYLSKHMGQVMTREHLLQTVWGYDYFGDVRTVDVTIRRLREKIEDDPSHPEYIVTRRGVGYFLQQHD

Sequence | binding
AAACTAAATTGACCATCACTTAACTAGGTGCTCTGTTAAACTTTTGTTATAAATTAAAGATAGAAGCAACCTATTCATATAAAGTGGTATCTCTTGACAATTTTACTCGTTTATAAGATGTTATAATTATGTAGTGTATAAGGAGGCATA (double strand) [rpsA promoter 150 bp] | binds
ATAATGCTAGAGGGACTTTTTCTAAAGACAGTCTACTTATTCGACTATCTATTAAGGTGGTTCATGGTAAAATGATACTAGTTTCATAACAAATCATTTACAATTTTGAATTACATCTTTAGAAATACGAGTTAATTGTTTAAGATGTAGCGTGAGGTG (double strand) [arlR promoter 159 bp] | binds
ATGATAGGAATCATTACGGTTATTCATAAAAATTAGCATCCTATTTCATGTAATTGTAGTGTAAAAAATAGGCGTTTATTTTTATTTCAGTGTAACCTGCACG (double strand) [sceD promoter 103 bp] | binds
ATTATTCAAATGCTTGTAGTTTTATAAGTCGCATTATTATTTTTAAATATTTTCACTATTGAATGGATTTTGATCTTCTTTATAAAAAATAAATAAAAGGTTTAAAGTTAAATAAAATTTAAAAAATAATAATTTATACAAAATGATATTTTTTTTAATCATAAATAATATGTAAAGTATTGCGTTAAAATGTAAAAGAAGGTAACATTACATACTAGATACATAAAATATATGTATCTTACATTTAAAATTAAATACATGGGAGGTATAAT (double strand) [aap promoter] | binds
CACATTGCTATGTTAATTATTATCAAAAAGAATTTTCAGTAATTTTACATTCATGTAACAGTGTTTGTGTTGCTCAAAATAAAATACTTTAAAAAAGCTGAGCGTATCATTTCTATTCATATTACATAAATTAATTGGGTTAAATGAGATTGTGTAACAATATTAGCAAAAAATTACAAATCAATAACAATGCACACAAACATCAATTTTTCTGTTAGAGTATGGCTTGTCG (double strand) [ssaA1 promoter 232 bp] | binds
CACGATTTTAGTATTGTCTTCAAAAAATCTTAGTATTTGCTATATATTATGTTAATACATGTATATCTTAGCATTATTTAAATAAGGAATGAATTATTTAAAGGTGAGCGCAACAAAATTTTAAGTATATTTTAACACTACCTTAACAGTCTTTAATGAATGATTTTATCACTATCTAATAGAACGTG (double strand) [murE promoter 188 bp] | binds
CATCTATTCATTCAATCAAGTATTTTTATTCTTTATAAAACTATGTTAGCAAATTAAATTTTAATACACGTTTCATTAATTCAAATCCCATTCTTAACAAAAAATTTACAATAACTCTATTTTGATTTAATAAAAGATATGTAACATGAGAACTGTAAGAAATACATAT (double strand) [pstS promoter 167 bp] | binds
TGATTTTATCGCTCATCATTTTTAATAAGATTATGAGACACTTATGTAAAAATTTAATATCTAGTTTGTTAAGAATTTGTAAATAGAATTGTGGTTATGTAAATTTTGTGATATTTTCAAGTAGGGACAAAACTGGATGTTGGCGAACATCAATAAATGATTACTATATATTAAATTTACACAATTTTTACAATATAAGAATTGCTAGTTACTTTTTATAATAATTGTAAATCAGTTCCTCAACCACTT (double strand) [pitR promoter 249 bp] | binds
TTACAAACCCCGTCATATCTAGGACTAACAGACCTCAATTATATAAATAAGTAATTTTTTTTGAACATACTCTTGTAAATATTGTGTAATAAACTAAAATTATTGGTAAGCCCTACATTTGTAGTATTAGGAGGTCAAAAAAAGTGTCAAAATTTAAGTCTTTGCTTCTATTATTTGGCA (double strand) [qoxB promoter 180 bp] | binds
TTCTAAAATCTCCCCCTTATTCAATTTTCTAAAAATATATTACAGAAAAATTAAGTTAAAATTACAAATATTACTGTTTCAGTATAACAACATTCTATTGCAAATTGAAATACTTTCGATTAGCATATGCTTTACAACCTAACTAACGAAAGGTAGGTGAAAAA (double strand) [ica intergenic region (icaR-icaA)] | binds
